The target in series [1] is T1, CRTC1 (CREB-regulated transcription coactivator 1).
T1 chain: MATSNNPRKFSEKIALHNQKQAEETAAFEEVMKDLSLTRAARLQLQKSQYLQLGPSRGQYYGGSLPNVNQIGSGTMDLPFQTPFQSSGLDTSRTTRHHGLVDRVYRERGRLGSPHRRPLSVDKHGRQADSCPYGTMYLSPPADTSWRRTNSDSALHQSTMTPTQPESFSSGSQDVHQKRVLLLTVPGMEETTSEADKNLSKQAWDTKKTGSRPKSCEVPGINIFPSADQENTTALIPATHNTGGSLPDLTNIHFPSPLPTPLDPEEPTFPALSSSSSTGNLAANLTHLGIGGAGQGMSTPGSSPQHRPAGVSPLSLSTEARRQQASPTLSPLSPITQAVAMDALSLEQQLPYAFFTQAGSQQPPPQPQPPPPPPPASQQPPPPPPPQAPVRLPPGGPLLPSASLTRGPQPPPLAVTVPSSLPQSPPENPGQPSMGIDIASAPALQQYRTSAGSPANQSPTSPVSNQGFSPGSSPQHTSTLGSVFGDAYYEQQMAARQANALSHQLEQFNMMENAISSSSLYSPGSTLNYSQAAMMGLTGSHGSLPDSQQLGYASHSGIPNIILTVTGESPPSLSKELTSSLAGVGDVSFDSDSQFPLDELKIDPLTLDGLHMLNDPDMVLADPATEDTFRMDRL

For a further series, the target named is T2, CRTC1 S151A.
T2 chain: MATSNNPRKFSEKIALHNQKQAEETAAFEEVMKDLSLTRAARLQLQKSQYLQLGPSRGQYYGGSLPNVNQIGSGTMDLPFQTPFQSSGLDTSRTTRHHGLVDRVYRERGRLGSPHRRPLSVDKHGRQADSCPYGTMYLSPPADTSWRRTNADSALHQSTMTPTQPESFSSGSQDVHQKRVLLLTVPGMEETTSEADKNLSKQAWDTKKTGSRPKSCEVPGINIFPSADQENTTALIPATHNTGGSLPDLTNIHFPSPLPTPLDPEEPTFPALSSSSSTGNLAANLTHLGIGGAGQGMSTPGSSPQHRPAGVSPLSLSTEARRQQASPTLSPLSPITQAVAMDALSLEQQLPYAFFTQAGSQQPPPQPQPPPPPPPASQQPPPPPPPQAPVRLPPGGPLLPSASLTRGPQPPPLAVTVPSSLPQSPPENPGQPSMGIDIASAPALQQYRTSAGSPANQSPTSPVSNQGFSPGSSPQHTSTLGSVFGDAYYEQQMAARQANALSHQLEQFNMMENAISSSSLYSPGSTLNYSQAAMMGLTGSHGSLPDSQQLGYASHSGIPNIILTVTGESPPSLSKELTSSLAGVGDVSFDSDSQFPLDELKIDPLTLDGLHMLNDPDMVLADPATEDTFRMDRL

The next series has as its target T3, CRTC1 S151A/T449A.
T3 chain: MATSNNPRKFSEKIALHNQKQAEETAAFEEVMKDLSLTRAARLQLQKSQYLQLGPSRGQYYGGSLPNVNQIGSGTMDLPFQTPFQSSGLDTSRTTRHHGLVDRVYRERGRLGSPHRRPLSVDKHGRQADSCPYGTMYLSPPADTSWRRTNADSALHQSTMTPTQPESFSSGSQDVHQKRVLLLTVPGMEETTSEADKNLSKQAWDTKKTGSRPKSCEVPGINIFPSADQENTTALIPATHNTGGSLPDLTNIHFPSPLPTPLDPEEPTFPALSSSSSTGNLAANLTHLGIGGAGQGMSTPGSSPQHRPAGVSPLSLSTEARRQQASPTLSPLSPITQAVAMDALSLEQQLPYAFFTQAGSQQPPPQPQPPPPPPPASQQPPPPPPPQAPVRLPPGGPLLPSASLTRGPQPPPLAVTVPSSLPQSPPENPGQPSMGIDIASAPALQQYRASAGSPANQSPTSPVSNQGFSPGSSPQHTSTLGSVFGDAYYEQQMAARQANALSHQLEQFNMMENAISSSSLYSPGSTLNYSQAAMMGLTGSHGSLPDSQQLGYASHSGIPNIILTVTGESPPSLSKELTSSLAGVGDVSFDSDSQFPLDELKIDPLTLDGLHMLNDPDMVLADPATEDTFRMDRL

Series [2] has as its target CREB (cyclic adenosine 3',5'-monophosphate response element-binding protein), P16220.
For the next series, the target named is T4, CRTC1 S151A/S215A.
T4 chain: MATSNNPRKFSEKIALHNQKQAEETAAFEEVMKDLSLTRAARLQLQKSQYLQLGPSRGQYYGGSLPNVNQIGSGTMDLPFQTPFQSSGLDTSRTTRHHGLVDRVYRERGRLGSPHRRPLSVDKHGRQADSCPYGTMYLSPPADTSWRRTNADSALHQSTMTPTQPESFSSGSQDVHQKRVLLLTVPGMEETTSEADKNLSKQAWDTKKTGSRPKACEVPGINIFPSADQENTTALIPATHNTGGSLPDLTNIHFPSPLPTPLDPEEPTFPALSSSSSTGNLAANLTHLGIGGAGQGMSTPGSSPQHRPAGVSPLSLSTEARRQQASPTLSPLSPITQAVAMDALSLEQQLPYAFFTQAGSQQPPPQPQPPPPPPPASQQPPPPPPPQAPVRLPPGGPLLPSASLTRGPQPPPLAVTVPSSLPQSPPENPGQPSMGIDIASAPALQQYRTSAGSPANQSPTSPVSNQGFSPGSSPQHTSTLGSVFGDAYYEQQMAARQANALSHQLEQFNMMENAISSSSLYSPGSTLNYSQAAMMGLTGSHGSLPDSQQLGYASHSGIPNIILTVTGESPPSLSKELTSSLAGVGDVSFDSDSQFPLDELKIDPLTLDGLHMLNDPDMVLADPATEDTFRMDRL

Sequence of CREB (cyclic adenosine 3',5'-monophosphate response element-binding protein), P16220 (P16220 whole entry): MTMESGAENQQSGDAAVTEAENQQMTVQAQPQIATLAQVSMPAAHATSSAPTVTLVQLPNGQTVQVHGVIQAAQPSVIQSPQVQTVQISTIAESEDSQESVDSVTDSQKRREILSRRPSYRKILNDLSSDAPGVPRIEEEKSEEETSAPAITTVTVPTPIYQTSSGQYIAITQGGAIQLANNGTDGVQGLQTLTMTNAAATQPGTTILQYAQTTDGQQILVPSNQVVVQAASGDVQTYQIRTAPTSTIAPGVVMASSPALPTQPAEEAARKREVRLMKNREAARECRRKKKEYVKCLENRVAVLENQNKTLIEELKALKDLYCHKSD

B1: PAK4 (p21-activated kinase 4) (protein)
chain: MFGKRKKRVEISAPSNFEHRVHTGFDQHEQKFTGLPRQWQSLIEESARRPKPLVDPACITSIQPGAPKTIVRGSKGAKDGALTLLLDEFENMSVTRSNSLRRDSPPPPARARQENGMPEEPATTARGGPGKAGSRGRFAGHSEAGGGSGDRRRAGPEKRPKSSREGSGGPQESSRDKRPLSGPDVGTPQPAGLASGAKLAAGRPFNTYPRADTDHPSRGAQGEPHDVAPNGPSAGGLAIPQSSSSSSRPPTRARGAPSPGVLGPHASEPQLAPPACTPAAPAVPGPPGPRSPQREPQRVSHEQFRAALQLVVDPGDPRSYLDNFIKIGEGSTGIVCIATVRSSGKLVAVKKMDLRKQQRRELLFNEVVIMRDYQHENVVEMYNSYLVGDELWVVMEFLEGGALTDIVTHTRMNEEQIAAVCLAVLQALSVLHAQGVIHRDIKSDSILLTHDGRVKLSDFGFCAQVSKEVPRRKSLVGTPYWMAPELISRLPYGPEVDIWSLGIMVIEMVDGEPPYFNEPPLKAMKMIRDNLPPRLKNLHKVSPSLKGFLDRLLVRDPAQRATAAELLKHPFLAKAGPPASIVPLMRQNRTR
For B1, the “phosphorylation of CRTC1 (in vitro kinase assay)” value in series [1] is “PAK4 phosphorylates CRTC1”. For the same protein, the “phosphorylation by PAK4 (kinase analysis of CRTC1 variants)” value is “CRTC1^S151A and CRTC1^S151A/T449A were slightly phosphorylated” with CRTC1 S151A; “CRTC1^S151A and CRTC1^S151A/T449A were slightly phosphorylated” in the series with CRTC1 S151A/T449A; “CRTC1^S151A/S215A, was not phosphorylated” with CRTC1 S151A/S215A. The “phosphorylation of CREB” value in series [2] is listed as “PAK4 does not induce phosphorylation of CREB”.

B2: caPAK4 (PAK4 S445N/S474E, constitutively active PAK4) (protein)
chain: MFGKRKKRVEISAPSNFEHRVHTGFDQHEQKFTGLPRQWQSLIEESARRPKPLVDPACITSIQPGAPKTIVRGSKGAKDGALTLLLDEFENMSVTRSNSLRRDSPPPPARARQENGMPEEPATTARGGPGKAGSRGRFAGHSEAGGGSGDRRRAGPEKRPKSSREGSGGPQESSRDKRPLSGPDVGTPQPAGLASGAKLAAGRPFNTYPRADTDHPSRGAQGEPHDVAPNGPSAGGLAIPQSSSSSSRPPTRARGAPSPGVLGPHASEPQLAPPACTPAAPAVPGPPGPRSPQREPQRVSHEQFRAALQLVVDPGDPRSYLDNFIKIGEGSTGIVCIATVRSSGKLVAVKKMDLRKQQRRELLFNEVVIMRDYQHENVVEMYNSYLVGDELWVVMEFLEGGALTDIVTHTRMNEEQIAAVCLAVLQALSVLHAQGVIHRDIKSDNILLTHDGRVKLSDFGFCAQVSKEVPRRKELVGTPYWMAPELISRLPYGPEVDIWSLGIMVIEMVDGEPPYFNEPPLKAMKMIRDNLPPRLKNLHKVSPSLKGFLDRLLVRDPAQRATAAELLKHPFLAKAGPPASIVPLMRQNRTR
As for B2, in series [1], the “substrate of the kinase (kinase analysis)” value is given as “CRTC1 is a substrate of caPAK4”.
